Measured values published in patent US20260256936A1, “BIOACTIVE CONJUGATES, PREPARATION METHOD AND USE THEREOF” (priority 2023, published 2026).
Where two headings read alike, the source gives them in different places.

Key:
Assay in all cases: cell-based or functional assay
[1] = molecular target: T1, CLL1 on CLL1-expressing cells (U937, HL60) (human, UniProt Q5QGZ9 1-265)
T1 sequence (looked up): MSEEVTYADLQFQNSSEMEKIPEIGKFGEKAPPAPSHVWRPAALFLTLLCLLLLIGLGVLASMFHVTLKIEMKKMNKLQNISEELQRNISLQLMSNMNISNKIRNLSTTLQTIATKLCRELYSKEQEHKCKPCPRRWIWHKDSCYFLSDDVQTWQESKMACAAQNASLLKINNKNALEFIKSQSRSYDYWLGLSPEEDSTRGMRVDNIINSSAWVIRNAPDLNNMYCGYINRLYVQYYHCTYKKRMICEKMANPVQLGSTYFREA

[2] = molecular target: T1, CLL1 on CLL1-expressing cells (U937, …); remark: listed apart in the source
[3] = molecular target: T1, CLL1 on CLL1-expressing cells (U937, …); remark: listed apart in the source
[4] = molecular target: T1, CLL1 on CLL1-expressing cells (U937, …); remark: listed apart in the source
[5] = molecular target: T1, CLL1 on CLL1-expressing cells (U937, …); remark: listed apart in the source
[6] = molecular target: T2, B7H3 on B7H3-expressing cells (NCI-H358, NCI-H1048) (human, UniProt Q5ZPR3 29-534)
T2 sequence (looked up): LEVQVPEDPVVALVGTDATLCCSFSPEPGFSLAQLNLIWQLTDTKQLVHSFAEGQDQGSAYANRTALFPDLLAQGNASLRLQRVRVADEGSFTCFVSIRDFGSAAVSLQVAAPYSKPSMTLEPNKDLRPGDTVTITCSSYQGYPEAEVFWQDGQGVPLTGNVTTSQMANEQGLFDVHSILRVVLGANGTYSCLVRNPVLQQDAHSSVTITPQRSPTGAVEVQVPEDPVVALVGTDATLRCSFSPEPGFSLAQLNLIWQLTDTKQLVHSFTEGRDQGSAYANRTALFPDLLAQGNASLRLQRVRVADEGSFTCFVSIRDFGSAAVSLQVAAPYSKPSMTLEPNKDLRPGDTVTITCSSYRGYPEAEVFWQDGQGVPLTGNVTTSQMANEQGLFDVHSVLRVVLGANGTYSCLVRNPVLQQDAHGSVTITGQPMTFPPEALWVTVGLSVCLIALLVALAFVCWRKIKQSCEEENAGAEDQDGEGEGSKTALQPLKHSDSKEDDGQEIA

B1: ADC3-A (antibody, human IgG1, kappa, V domains shown)
VH: EVQLVQSGAEVKKPGASVKVSCKASGYSFTDYYMHWVRQAPGQGLEWIGRINPYAGAAFYSQNFKDRVTLTVDTSTSTAYLELSSLRSEDTAVYYCAIERGADLEGYAMDYWGQGTLVTVSS
VL: DIQMTQSPSSLSASVGDRVTITCRASQSVSTSSYNYMHWYQQKPGKPPKLLIKYASNLESGVPSRFSGSGSGTDFTLTISSLQPEDFATYYCQHSWEIPLTFGQGTKVEIKR
modifications: conjugator-linker-payload on cysteine thiols after TCEP reduction; positions not given
- EC50 (nM) direct cellular killing, HL60 [1]: 4.8 nM
- EC50 (nM) direct cellular killing, HL60 [2]: 6.5 nM
- EC50 (nM) direct cellular killing, HL60 [3]: 10.9 nM
- EC50 (nM) direct cellular killing, U937 [3]: 0.7 nM
- EC50 (nM) direct cellular killing, HL60 [4]: 1.4 nM
- EC50 (nM) direct cellular killing, U937 [4]: 0.7 nM
- EC50 (nM) direct cellular killing, HL60 [5]: 6.3 nM
- EC50 (nM) direct cellular killing, U937 [5]: 0.8 nM

B2: ADC3-15 (antibody, human IgG1, kappa, V domains shown)
VH: EVQLVQSGAEVKKPGASVKVSCKASGYSFTDYYMHWVRQAPGQGLEWIGRINPYAGAAFYSQNFKDRVTLTVDTSTSTAYLELSSLRSEDTAVYYCAIERGADLEGYAMDYWGQGTLVTVSS
VL: DIQMTQSPSSLSASVGDRVTITCRASQSVSTSSYNYMHWYQQKPGKPPKLLIKYASNLESGVPSRFSGSGSGTDFTLTISSLQPEDFATYYCQHSWEIPLTFGQGTKVEIKR
modifications: conjugator-linker-payload on cysteine thiols after TCEP reduction; positions not given
- EC50 (nM) direct cellular killing, HL60 [3]: 6.5 nM
- EC50 (nM) direct cellular killing, U937 [3]: 0.3 nM

B3: ADC3-B (antibody, human IgG1, kappa, V domains shown)
VH: QVQLVQSGAEVKKPGSSVKVSCKASGYTFTNYVMHWVRQAPGQGLEWMGYINPYNDDVKYNEKFKGRVTITADESTSTAYMELSSLRSEDTAVYYCARWGYYGSPLYYFDYWGQGTLVTVSS
VL: EIVLTQSPATLSLSPGERATLSCRASSRLIYMHWYQQKPGQAPRPLIYATSNLASGIPARFSGSGSGTDFTLTISSLEPEDFAVYYCQQWNSNPPTFGQGTKVEIKR
modifications: conjugator-linker-payload on cysteine thiols after TCEP reduction; positions not given
- EC50 (nM) direct cellular killing, NCI-H358 [6]: 0.1 nM
- EC50 (nM) direct cellular killing, NCI-H1048 [6]: 0.2 nM
